Test results reported in paper PMC4176340, “Structure and function of TatD exonuclease in DNA repair”.

Target: T1, TatD (Escherichia coli K12, UniProt P27859 1-260)
T1 sequence: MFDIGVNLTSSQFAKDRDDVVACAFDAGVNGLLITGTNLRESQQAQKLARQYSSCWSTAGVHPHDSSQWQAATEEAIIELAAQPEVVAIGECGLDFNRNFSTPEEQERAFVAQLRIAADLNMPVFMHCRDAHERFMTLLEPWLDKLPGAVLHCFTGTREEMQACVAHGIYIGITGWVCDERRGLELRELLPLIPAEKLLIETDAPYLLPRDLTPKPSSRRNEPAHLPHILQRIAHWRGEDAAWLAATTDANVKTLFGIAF
Test: X-ray crystallography 2.9 A; no metal ion identified; only trinucleotide GCT seen, weak density, occupancy 0.7, inactive conformation, likely cleaved product; Co-crystals: TatD 7-8 mg/ml in 10 mM MOPS, 250 mM NaCl, DNA at 1:1.2 (TatD:DNA); reservoir 4% Tacsmate pH 4, 12% PEG 3350; temperature not stated. Nuclease assays (turnover only) not listed
Details: protein: recombinant; tags: C-terminal His-tag (pET22b); single strand; only 5'-GCT-3' modelled (digestion product or ordered 3' end)

GCTTAGCT (ssDNA) [8-nt ssDNA used for co-crystallization]: binds.
